# Test results: US20110064740A1 (GlaxoSmithKline, published 2011)
# Experiments:
# [1] = target: T1, human beta-amyloid peptide (1-40) (human, UniProt P05067 672-711); assay: SPR Biacore 3000, Method B: antibody captured, β-amyloid as analyte
# T1 construct: domain: beta-amyloid peptide (1-40); Unlabelled peptide: amine-coupled to a CM5 chip (Method A(ii)) or in solution as analyte (Method B); also called beta-amyloid (1-40)
# Experimental: (§1) In the second instance the assay was reversed, in that antibodies were first captured to a level of 1000-2500 resonance units on an anti-mouse IgG polyclonal antibody surface (for recombinant mouse 2E7 MAb) or a protein A surface (for humanized H2L1) of a CM5 biosensor chip. Freshly prepared beta-amyloid (1-40) or (1-42) was diluted down in HBS-EP buffer and passed over the captured-antibody surface at concentrations ranging from 4-500 nM (Table 10C and 10D).
# (§2) In both methods, regeneration was via a pulse of 100 mM H₃PO₄, and for Table 10A data also followed by a pulse of 50 mM NaOH. […] All runs were double referenced against buffer blank injections. Analysis was carried out using the Biacore™ analysis software BIAevaluation version 4.1.
# [2] = target: T2, human beta-amyloid peptide (1-42) (human, UniProt P05067 672-713); assay: as above
# T2 construct: domain: beta-amyloid peptide (1-42); Unlabelled peptide: amine-coupled to a CM5 chip (Method A(ii)) or in solution as analyte (Method B); also called beta-amyloid (1-42)
# Experimental: as §1, §2
# [3] = target: T3, human Aβ peptide (length not stated) (human, UniProt P05067 672-711); assay: competition ELISA, β-amyloid in solution pre-incubated with the antibody; competitor: immobilised mouse 2E7; Experiment 1
# T3 construct: also called β-amyloid in solution
# Experimental: (§3) 2) β-amyloid in solution; a constant concentration of β-amyloid was pre-incubated with a dilution series of humanised 2E7 antibody variants—the mixture including complexed and free amyloid was added for a short time to wells containing immobilised mouse 2E7 MAb. The amount of free β-amyloid that was still available for binding the immobilised parental 2E7 MAb was then detected.
# [4] = target: T4, human Aβ peptide (1-40) biotinylated at the C terminus (human, UniProt P05067 672-711, biotinylated at the C-terminus); assay: SPR Biacore 3000, Method A(i): C-terminally biotinylated β-amyloid 1-40 on streptavidin chip, antibody as analyte; Average(SD) of two runs
# T4 construct: domain: β-amyloid peptide (1-40); Numbers 1-40 count on the β-amyloid peptide, not on APP; also called beta-amyloid 1-40 peptide (biotinylated at the C-terminus); streptavidin-captured beta-amyloid (1-40)
# Experimental: (§4) (i) Briefly, <20 resonance units of beta-amyloid 1-40 peptide (biotinylated at the C-terminus) were captured on a streptavidin biosensor chip (as used for Table 10A). The antibodies were diluted down in HBS-EP buffer and passed over the streptavidin/beta-amyloid surface at concentrations ranging from 0.001 nM-8 nM (for Table 10A). Two separate runs were carried out; each run was carried out on a new streptavidin/beta-amyloid surface. Runs 1 and 2 were essentially the same though there were some differences in the parameters used; Run 1 was carried out using a chip surface on which 16 RU's of beta-amyloid were captured, and antibody concentrations of 0.001 nM-8 nM were used, an association time of 4 minutes and a dissociation time of 20 minutes were used at a flow rate of 50 μl per minute. For Run 2, less than 10 RU's of beta-amyloid were captured and antibody concentrations of 0.003125 nM-8 nM were used. The flow rate and association times were the same as Run 1, however the dissociation time was reduced to 15 minutes. (ii) Beta amyloid (1-40) and (1-42) were amine-coupled on different surfaces of a CM5 biosensor chip to a level of <20 resonance units (as used for Table 10B). The antibodies were diluted down in HBS-EP buffer and passed over the biosensor/beta-amyloid surface at concentrations ranging from 1 nM-64 nM (as used for Table 10B).
# as §2
# [5] = target: T4, human Aβ peptide (1-40) biotinylated at …; assay: competition ELISA, biotinylated human Aβ (1-40) on streptavidin plate; competitor: mouse 2E7 at constant concentration; Experiment 2
# Experimental: (§5) Two types of competition ELISA were established in order to compare the Aβ binding activity of the three humanised variants compared to the 2E7 chimeric antibody. 1) Immobilised β-amyloid; biotinylated human Aβ peptide (1-40) was immobilized through Streptavidin on ELISA plates Mouse 2E7 antibody was added at a constant concentration along with a dilution series of 2E7-derived humanised variant antibodies. Bound mouse 2E7 MAb was then detected with anti-mouse IgG conjugate.
# [6] = target: T4, human Aβ peptide (1-40) biotinylated at …; assay: SPR Biacore 3000, Method A(i): C-terminally biotinylated β-amyloid 1-40 on streptavidin chip, antibody as analyte; Run 1
# Experimental: as §4, §2
# [7] = target: T4, human Aβ peptide (1-40) biotinylated at …; assay: Aβ binding ELISA, human Aβ (1-40) biotinylated at the C terminus
# [8] = target: T4, human Aβ peptide (1-40) biotinylated at …; assay: as above; remark: listed apart in the source
# [9] = target: T4, human Aβ peptide (1-40) biotinylated at …; assay: SPR Biacore 3000, Method A(i): C-terminally biotinylated β-amyloid 1-40 on streptavidin chip, antibody as analyte; Run 2
# Experimental: as §4, §2
# [10] = target: T4, human Aβ peptide (1-40) biotinylated at …; assay: Aβ binding ELISA, human Aβ (1-40) biotinylated at the C terminus; remark: listed apart in the source
# [11] = target: T4, human Aβ peptide (1-40) biotinylated at …; assay: competition ELISA, biotinylated human Aβ (1-40) on streptavidin plate; competitor: mouse 2E7 at constant concentration; Experiment 1
# Experimental: as §5
# [12] = target: T3, human Aβ peptide (length not stated); assay: competition ELISA, β-amyloid in solution pre-incubated with the antibody; competitor: immobilised mouse 2E7; Experiment 2
# Experimental: as §3
# [13] = target: T4, human Aβ peptide (1-40) biotinylated at …; assay: Aβ binding ELISA with culture supernatant, Aβ peptide (1-40)
# T2 sequence (P05067 672-713 limits assumed): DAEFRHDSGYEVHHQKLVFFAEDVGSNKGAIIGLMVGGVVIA
# T3 sequence (P05067 672-711): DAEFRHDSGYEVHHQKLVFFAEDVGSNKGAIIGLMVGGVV
# T1 sequence (P05067 672-711 limits assumed): as the sequence (P05067 672-711) above
# T4 sequence (P05067 672-711 limits assumed): as the sequence (P05067 672-711) above
IC50 [3] [µg/mL],Kd [4] [nM],IC50 [5] [µg/mL],Kd [6] [nM],EC50 [7] [µg/mL],EC50 [8] [µg/mL],Kd [9] [nM],EC50 [10] [µg/mL],IC50 [11] [µg/mL],EC50 [13] [µg/mL],Binder,also measured
0.052,0.0458,1.29,0.0481,0.044,0.043,0.0435,0.033,1.31,,"Chimeric 2E7 antibody (2E7c) (antibody, human IgG1, V domains shown, Parent murine V regions on human IgG1 (L235A, G237A) and human C kappa; also called 2E7c Chimera; not shown: human IgG1 heavy chain constant region, Fc mutated (L235A, G237A); human C kappa constant region) VH: EVKLVESGGGLVQPGGSLKLSCAVSGFTFSDNGMAWVRQAPRKGPEWIAFISNLAYSIDYADTVTGRFTISRDNAKNTLYLEMSSLRSEDTAMYYCVSGTWFAYWGQGTLVTVSA VL: DVVLTQTPLSLPVSLGDQASISCRVSQSLLHSNGYTYLHWYLQKPGQSPKLLIYKVSNRFSGVPDRFSGSGSGTDFTLKISRVEAEDLGVYFCSQTRHVPYTFGGGTKLEIK",
,,,,,,,,,0.239,"H2L1 Fab, H2 heavy chain truncated at residue 224 of the hinge region (Fab, V domains shown, Recombinant Fab from CHOK1 culture supernatant; also called (a) H2L1 Fab) VH: EVQLVESGGGLVQPGGSLRLSCAVSGFTFSDNGMAWVRQAPGKGLEWVSFISNLAYSIDYADTVTGRFTISRDNAKNSLYLQMNSLRAEDTAVYYCVSGTWFAYWGQGTLVTVSS VL: DIVMTQSPLSLPVTPGEPASISCRVSQSLLHSNGYTYLHWYLQKPGQSPQLLIYKVSNRFSGVPDRFSGSGSGTDFTLKISRVEAEDVGVYYCSQTRHVPYTFGGGTKVEIKR",
0.069,0.0666,1.39,0.076,0.04,0.055,0.0572,0.044,1.53,,"Humanised 2E7 variant H3L1 (antibody, human IgG1, kappa, V domains shown, Human IgG1 with L235A and G237A, human kappa; also called L1+H3) VH: EVQLVESGGGLVQPGGSLRLSCAASGFTFSDNGMAWVRQAPGKGLEWISFISNLAYSIDYADTVTGRFTISRDNAKNSLYLQMNSLRAEDTAVYYCVSGTWFAYWGQGTLVTVSS VL: DIVMTQSPLSLPVTPGEPASISCRVSQSLLHSNGYTYLHWYLQKPGQSPQLLIYKVSNRFSGVPDRFSGSGSGTDFTLKISRVEAEDVGVYYCSQTRHVPYTFGGGTKVEIKR",IC50 [12]: 0.115 µg/mL

# Second part, the binder before the results:
Binder,IC50 [3] [µg/mL],Kd [4] [nM],IC50 [5] [µg/mL],Kd [6] [nM],EC50 [7] [µg/mL],EC50 [8] [µg/mL],Kd [9] [nM],EC50 [10] [µg/mL],IC50 [11] [µg/mL],EC50 [13] [µg/mL],also measured
"2F11, an identical sequence clone to mouse 2E7 MAb (antibody, V domains shown, Mouse antibody) VH: EVKLVESGGGLVQPGGSLKLSCAVSGFTFSDNGMAWVRQAPRKGPEWIAFISNLAYSIDYADTVTGRFTISRDNAKNTLYLEMSSLRSEDTAMYYCVSGTWFAYWGQGTLVTVSA VL: DVVLTQTPLSLPVSLGDQASISCRVSQSLLHSNGYTYLHWYLQKPGQSPKLLIYKVSNRFSGVPDRFSGSGSGTDFTLKISRVEAEDLGVYFCSQTRHVPYTFGGGTKLEIK",,,,,,,,,,,Kd [1]: 1.31 nM; koff [1]: 0.000392 s⁻¹; kon [1]: 299000 M⁻¹ s⁻¹; Kd [2]: 1.14 nM; koff [2]: 0.000274 s⁻¹; kon [2]: 239000 M⁻¹ s⁻¹
"Humanised 2E7 variant H1L1 (antibody, human IgG1, kappa, V domains shown, Human IgG1 with L235A and G237A, human kappa; also called L1+H1) VH: EVQLVESGGGLVQPGGSLRLSCAASGFTFSDNGMAWVRQAPGKGLEWVSFISNLAYSIDYADTVTGRFTISRDNAKNSLYLQMNSLRAEDTAVYYCVSGTWFAYWGQGTLVTVSS VL: DIVMTQSPLSLPVTPGEPASISCRVSQSLLHSNGYTYLHWYLQKPGQSPQLLIYKVSNRFSGVPDRFSGSGSGTDFTLKISRVEAEDVGVYYCSQTRHVPYTFGGGTKVEIKR",0.114,0.0936,1.76,0.095,0.047,0.051,0.0922,0.035,1.62,,IC50 [12]: 0.14 µg/mL
"H2L1 Fab His, H2 heavy chain truncated at position 224 with a C-terminal 6x histidine tag including histidine at position 224 (Fab, V domains shown, Recombinant Fab from CHOK1 culture supernatant) VH: EVQLVESGGGLVQPGGSLRLSCAVSGFTFSDNGMAWVRQAPGKGLEWVSFISNLAYSIDYADTVTGRFTISRDNAKNSLYLQMNSLRAEDTAVYYCVSGTWFAYWGQGTLVTVSS VL: DIVMTQSPLSLPVTPGEPASISCRVSQSLLHSNGYTYLHWYLQKPGQSPQLLIYKVSNRFSGVPDRFSGSGSGTDFTLKISRVEAEDVGVYYCSQTRHVPYTFGGGTKVEIKR",,,,,,,,,,0.227,
"H2L1 Fab cys, H2 heavy chain truncated at the second cysteine in the hinge region at residue 226 (Fab, V domains shown, Recombinant Fab from CHOK1 culture supernatant; also called (b) H2L1 Fab cys) VH: EVQLVESGGGLVQPGGSLRLSCAVSGFTFSDNGMAWVRQAPGKGLEWVSFISNLAYSIDYADTVTGRFTISRDNAKNSLYLQMNSLRAEDTAVYYCVSGTWFAYWGQGTLVTVSS VL: DIVMTQSPLSLPVTPGEPASISCRVSQSLLHSNGYTYLHWYLQKPGQSPQLLIYKVSNRFSGVPDRFSGSGSGTDFTLKISRVEAEDVGVYYCSQTRHVPYTFGGGTKVEIKR",,,,,,,,,,0.226,
